Measured values published in patent US20230071609A1 (Genentech, published 2023).
One block for each binder: values may come before it.

What was measured:
[1] = target: T1, circulating APOL1 in normal human serum (human, UniProt O14791 28-398); test: cell-based or functional assay
T1 sequence (looked up): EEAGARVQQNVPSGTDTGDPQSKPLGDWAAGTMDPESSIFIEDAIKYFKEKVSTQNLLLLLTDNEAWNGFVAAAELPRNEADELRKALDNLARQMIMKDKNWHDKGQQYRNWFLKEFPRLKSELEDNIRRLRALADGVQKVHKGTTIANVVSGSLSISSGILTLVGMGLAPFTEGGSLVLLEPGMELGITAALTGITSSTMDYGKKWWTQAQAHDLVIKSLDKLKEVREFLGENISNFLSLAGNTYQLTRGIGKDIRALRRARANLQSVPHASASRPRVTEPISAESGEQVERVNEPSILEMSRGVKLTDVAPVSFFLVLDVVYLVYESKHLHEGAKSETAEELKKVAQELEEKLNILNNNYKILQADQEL

APOL6-myc-FLAG = target: T2, APOL6-myc-FLAG (human, UniProt Q9BWW8 1-343); test: immunofluorescence on transfected COS cells; grade (also no cross-reaction by western blot)
T2 construct: whole, on cells; In fixed, permeabilized transfected COS cells; untagged APOL6 in the western blots; not shown: C-terminal myc-FLAG tag
T2 sequence (looked up): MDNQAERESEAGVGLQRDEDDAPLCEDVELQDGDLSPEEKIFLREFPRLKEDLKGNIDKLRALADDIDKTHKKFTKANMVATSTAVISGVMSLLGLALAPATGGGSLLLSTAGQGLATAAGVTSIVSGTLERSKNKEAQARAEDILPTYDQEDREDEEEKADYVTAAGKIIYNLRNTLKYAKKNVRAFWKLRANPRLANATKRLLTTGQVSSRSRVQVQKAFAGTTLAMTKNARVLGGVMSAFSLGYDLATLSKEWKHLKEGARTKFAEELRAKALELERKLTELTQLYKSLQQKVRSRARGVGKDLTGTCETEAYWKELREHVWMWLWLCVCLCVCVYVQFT
Text: COS cells were transfected as in FIG. 31A except APOL1 and APOL2 were also C-terminally myc-FLAG tagged. Overlays of APOL with epitope tags: either mouse anti-FLAG-M2 or mouse anti-myc 9E10 for anti-APOL1 rabmabs; or rabbit anti-Myc 71D10 in conjunction with mouse anti-APOL1. Signals indicate the two antibodies overlap (i.e. anti-APOL1 cross-reacts with that APOL); signals (epitope tag only) indicate no cross-reactivity. Alexa647 anti-rabbit or mouse were used for the tags to rule out the possibility that any colocalization was a bleed-through artifact. Sparsely transfected areas were imaged to permit evaluation of background staining in adjacent untransfected cells—DAPI nuclear staining identifies both untransfected and transfected cell nuclei. […] Note that none of the antibodies cross-reacted with the more distantly related APOL6. *, APOL2-myc-FLAG is presumably misfolded, since it is not as cross-reactive as untagged APOL2 (compare FIG. 31A) with several antibodies. Commercial antibodies are Sigma HPA018885, Epitomics EPR2907 (2) (Epito) and Proteintech 11486-2-AP (Ptech).
Cells were plated on LabTekII (Nalge Nunc 154534) slides and fixed at 70-100% confluency. For mAb screening, cells were fixed/permeabilized for 5 min in −20° C. methanol (EMD MX0485-6). […]

[2] = target: T3, endogenous APOL2 in human podocytes (human, UniProt Q9BQE5 1-337); test: western blot of WT and APOL1 KO podocyte lysates
T3 construct: In podocyte lysates (western blot) or fixed, permeabilized podocytes; also called 36 kDa APOL2 band
T3 sequence (looked up): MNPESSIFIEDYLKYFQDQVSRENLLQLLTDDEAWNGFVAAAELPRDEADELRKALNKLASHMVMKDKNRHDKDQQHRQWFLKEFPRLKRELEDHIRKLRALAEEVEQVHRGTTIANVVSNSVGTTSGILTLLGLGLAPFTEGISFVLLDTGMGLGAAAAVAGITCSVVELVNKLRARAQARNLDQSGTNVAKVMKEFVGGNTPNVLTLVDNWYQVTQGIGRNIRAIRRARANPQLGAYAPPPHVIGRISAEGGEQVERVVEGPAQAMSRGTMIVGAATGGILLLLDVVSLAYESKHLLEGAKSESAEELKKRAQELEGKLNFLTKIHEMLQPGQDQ
Description: The results corroborate the IF cross-reactivities, except for APOL4 cross-reactivity, which appears to be conformationally sensitive. The 3.6D12 antibody continues to recognize APOL2 in the APOL1 KO podocytes (generated as described in Example 1). Note the 4.17A5 western is shown at a longer exposure than the others.
Following three TBST washes, anti-mouse (GE Healthcare NA931V, 1:3000) or anti-rabbit HRP (Jackson 711-036-152, 1:8000) was added as secondary antibody. After 1 h, membranes were washed and protein detected using ECL prime (Amersham RPN2232) exposed to MR film (Kodak). Anti-actin HRP-conjugated antibody (clone 13E5, Cell Signaling Technologies 5125S at 1:5000) or calnexin (Abcam Ab22595 at 1:1000) was used as a loading control. For peptide mapping, 2 μl of 1 mM peptides in DMSO were boiled in 5× sample buffer and loaded on 10% Tris-Glycine gel and run using MES buffer. Cell pellets of Sf9 lysates were lysed in native RIPA (NP-40) lysis buffer and run on 10% Tris-Glycine gels.

IC50 of blocking of serum APOL1-mediated trypanolysis (Alamar Blue) [1]: 0.5 nM
B1: antibody 3.7D6 (antibody, V domains shown)
VH: QIQLVQSGPDLKKPGETVKISCRTSGYAFTNYGVNWVKQAPGKGLKWMGWINTNTGQTTYAEEFRGRFAISLETSASTAFLTISNLKNEDSATYFCARLIYDGDYISSDFWGQGTTLTVSS
VL: DIQMTQSPDSLSASVGETVTITCGASENIYGALNWYQRKQGKSPQLLIYGATNLADGMSSRFSGSRSGRQYSLKISSLHPDDVATYYCQNALSMPYTFGGGTKLEIKR
notes: Mouse mAb, cloned as murine IgG2a LALAPG; those versions are not written separately; also called PFD antibody 3.7D6

binding result (APOL6-myc-FLAG): no binding (tested: 1 µg/ml)
B2: antibody 4.12E5 (antibody, V domains shown)
VH: EVQLQQSGPELVKTGASVKISCKASGYSFTGYFMHWVKQSHGKSLEWIGYISCYNGASVYNQRFKGKATFTIDTSSSTAYMQFNSLTSEDSAVYYCARDVLRYPRYAVDYWGQGTSVTVSS
VL: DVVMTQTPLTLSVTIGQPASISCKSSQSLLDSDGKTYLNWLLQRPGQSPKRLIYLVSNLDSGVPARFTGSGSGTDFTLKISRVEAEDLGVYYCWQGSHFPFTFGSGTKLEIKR
notes: Mouse mAb, cloned as murine IgG2a LALAPG

binding result [2]: binds
B3: antibody 3.6D12 (antibody, V domains shown)
VH: EVMLVESGGGLVRPGGSLKLSCTASGFTFSRCAMSWVRQTPEKRLEWVSAISRDSTYTYYSDSVKGRFTVSRDNAKNTLYLQMSSLRSEDTAMYYCARQIDDYYVDALDYWGQGTSVTVSS
VL: DVQITQSPSYLAASPGETITINCRASKIISKYLAWYQEKPGKTIKLLIYSGFTLQSGIPSRFSGSGSGTDFTLTISSLEPEDFAMYYCQQHNEYPLTFGAGTKLEIKR
notes: Mouse mAb (Method #3), cloned as murine IgG2a LALAPG; Early screens used hybridoma-purified antibody; also called mAb 3.6D12
